The experiment concerns the target T1, programmed cell death ligand 1 (PD-L1) (UniProt Q9NZQ7 19-239, limits assumed, biotinylated in the yeast display assays).
T1 construct: also called PD-Li
In words: BLI, max binding signal versus PD-L1 concentration.

The source of these data is patent US20230416726A1 (University of Washington, published 2023).

T1 sequence (Q9NZQ7 19-239 limits assumed): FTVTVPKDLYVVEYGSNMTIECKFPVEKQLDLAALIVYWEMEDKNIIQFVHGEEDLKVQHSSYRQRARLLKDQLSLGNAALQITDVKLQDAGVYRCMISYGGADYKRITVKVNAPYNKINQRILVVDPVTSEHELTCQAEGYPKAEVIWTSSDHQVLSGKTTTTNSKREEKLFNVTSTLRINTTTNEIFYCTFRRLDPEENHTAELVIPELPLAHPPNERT

B1: pdl1_inp_1 (purified from E. coli) (designed binder)
chain: DLEEFFEECLKEAEEVRKEVLEGKARIQIKESVRKEDPEGGTYVCGVISLGPKGGKFHVVFHKEDPEGKEETLARFEFKVEGGKVELLELKSKDPELKKLAEKYAEKLLE
notes: Expressed as a monomer; Tested by BLI; not shown: C-terminal SNAC tag and 6xHis tag from the modified pET29b+ vector
In the case of B1, the affinity, expressed as Kd, was 326 nM.
